Laboratory results from US20210388040A1.

Molecular target: SMARCD1 (human) (UniProt Q96GM5)
Experiment: HA-bait purification from HEK-293T nuclear extract, mass spectrometry, peptide count

Sequence of SMARCD1 (human) (Q96GM5 whole entry): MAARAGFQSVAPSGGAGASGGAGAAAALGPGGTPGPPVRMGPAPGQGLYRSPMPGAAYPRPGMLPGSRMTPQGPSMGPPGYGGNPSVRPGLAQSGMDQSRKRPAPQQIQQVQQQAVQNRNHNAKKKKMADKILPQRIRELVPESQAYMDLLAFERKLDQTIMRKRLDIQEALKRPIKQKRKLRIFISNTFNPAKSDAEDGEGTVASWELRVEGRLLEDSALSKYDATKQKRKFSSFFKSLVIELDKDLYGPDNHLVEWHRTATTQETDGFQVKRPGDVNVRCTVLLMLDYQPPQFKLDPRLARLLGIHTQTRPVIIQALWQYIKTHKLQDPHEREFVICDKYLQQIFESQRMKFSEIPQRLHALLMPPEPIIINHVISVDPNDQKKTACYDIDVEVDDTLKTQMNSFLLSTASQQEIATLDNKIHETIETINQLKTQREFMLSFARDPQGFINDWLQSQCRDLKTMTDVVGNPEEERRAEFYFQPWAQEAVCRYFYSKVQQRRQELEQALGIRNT

B1: HA-BRD7 (protein, human)
chain: MYPYDVPDYAMGKKHKKHKSDKHLYEEYVEKPLKLVLKVGGNEVTELSTGSSGHDSSLFEDKNDHDKHKDRKRKKRKKGEKQIPGEEKGRKRRRVKEDKKKRDRDRVENEAEKDLQCHAPVRLDLPPEKPLTSSLAKQEEVEQTPLQEALNQLMRQLQRKDPSAFFSFPVTDFIAPGYSMIIKHPMDFSTMKEKIKNNDYQSIEELKDNFKLMCTNAMIYNKPETIYYKAAKKLLHSGMKILSQERIQSLKQSIDFMADLQKTRKQKDGTDTSQSGEDGGCWQREREDSGDAEAHAFKSPSKENKKKDKDMLEDKFKSNNLEREQEQLDRIVKESGGKLTRRLVNSQCEFERRKPDGTTTLGLLHPVDPIVGEPGYCPVRLGMTTGRLQSGVNTLQGFKEDKRNKVTPVLYLNYGPYSSYAPHYDSTFANISKDDSDLIYSTYGEDSDLPSDFSIHEFLATCQDYPYVMADSLLDVLTKGGHSRTLQEMEMSLPEDEGHTRTLDTAKEMEITEVEPPGRLDSSTQDRLIALKAVTNFGVPVEVFDSEEAEIFQKKLDETTRLLRELQEAQNERLSTRPPPNMICLLGPSYREMHLAEQVTNNLKELAQQVTPGDIVSTYGVRKAMGISIPSPVMENNFVDLTEDTEEPKKTDVAECGPGGS
- Total: 73 peptides
- Unique: 44 peptides
